Test results taken from PMC10397247.

T1: 4H1387-bN
T1 chain: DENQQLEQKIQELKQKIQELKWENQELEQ

T2: 4H3592-bN
T2 chain: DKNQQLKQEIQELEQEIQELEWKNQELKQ

T3: 4H4038-bN
T3 chain: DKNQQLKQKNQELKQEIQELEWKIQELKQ

T4: 4H3907-bN
T4 chain: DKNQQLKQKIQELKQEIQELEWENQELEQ

T5: 4H3601-bN
T5 chain: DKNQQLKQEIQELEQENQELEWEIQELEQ

T6: 4H2162-bN
T6 chain: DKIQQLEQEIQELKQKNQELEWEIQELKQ

T7: 4H1406-bN
T7 chain: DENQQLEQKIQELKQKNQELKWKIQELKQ

T8: 4H454-bN
T8 chain: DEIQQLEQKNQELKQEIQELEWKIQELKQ

T9: 4H754-bH
T9 chain: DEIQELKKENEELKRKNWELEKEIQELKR

T10: 4H72-bH
T10 chain: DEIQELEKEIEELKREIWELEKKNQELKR

T11: 4H717-bH
T11 chain: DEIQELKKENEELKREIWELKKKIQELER

T12: O10-bH
T12 chain: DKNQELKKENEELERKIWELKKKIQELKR

T13: 4H797-bH
T13 chain: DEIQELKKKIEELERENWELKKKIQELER

T14: 4H918-bH
T14 chain: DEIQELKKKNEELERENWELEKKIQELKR

T15: 4H967-bH
T15 chain: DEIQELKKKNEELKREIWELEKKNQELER

T16: 4H883-bH
T16 chain: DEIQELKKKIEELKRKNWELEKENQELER

T17: 4H908-bH
T17 chain: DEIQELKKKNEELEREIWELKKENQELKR

T18: 4H953-bH
T18 chain: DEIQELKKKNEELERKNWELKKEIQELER

T19: 4H687-bH
T19 chain: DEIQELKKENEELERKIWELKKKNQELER


Key:
Assay in all cases: two-hybrid library CCNG1;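 also: natural log of median RNA to DNA barcode read ratio; higher means stronger binding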
4H1387-bN = biological target: T1, 4H1387-bN
4H3592-bN = biological target: T2, 4H3592-bN
4H4038-bN = biological target: T3, 4H4038-bN
4H3907-bN = biological target: T4, 4H3907-bN
4H3601-bN = biological target: T5, 4H3601-bN
4H2162-bN = biological target: T6, 4H2162-bN
4H1406-bN = biological target: T7, 4H1406-bN
4H454-bN = biological target: T8, 4H454-bN
4H754-bH = biological target: T9, 4H754-bH
4H72-bH = biological target: T10, 4H72-bH
4H717-bH = biological target: T11, 4H717-bH
O10-bH = biological target: T12, O10-bH
4H797-bH = biological target: T13, 4H797-bH
4H918-bH = biological target: T14, 4H918-bH
4H967-bH = biological target: T15, 4H967-bH
4H883-bH = biological target: T16, 4H883-bH
4H908-bH = biological target: T17, 4H908-bH
4H953-bH = biological target: T18, 4H953-bH
4H687-bH = biological target: T19, 4H687-bH

interaction score (4H1387-bN)	interaction score (4H3592-bN)	interaction score (4H4038-bN)	interaction score (4H3907-bN)	interaction score (4H3601-bN)	interaction score (4H2162-bN)	interaction score (4H1406-bN)	interaction score (4H454-bN)	interaction score (4H754-bH)	interaction score (4H72-bH)	interaction score (4H717-bH)	interaction score (O10-bH)	interaction score (4H797-bH)	interaction score (4H918-bH)	interaction score (4H967-bH)	interaction score (4H883-bH)	interaction score (4H908-bH)	interaction score (4H953-bH)	interaction score (4H687-bH)	Binder
-1.9	0.94	0.464	1.31	-0.293	-2.27	-0.625	-0.28												DENQQLEQKIQELKQKIQELKWENQELEQ [4H1387-bN]
								-0.221	0.182	-0.0944	-0.602	-0.897	-0.146	1.63	0.0397	-0.414	-0.5	0	DEIQELKKENEELERKIWELKKKNQELER [4H687-bH]
